Several values for one entry are separate records, joined by “and”; a condition that tells them apart may be missing. Identical values can stand only once. Like-named read-outs stand apart in the source and are kept apart here.
T1: HCMV gH on virions of strain VR1814 (HCMV, UniProt P12824 24-743)
T1 sequence: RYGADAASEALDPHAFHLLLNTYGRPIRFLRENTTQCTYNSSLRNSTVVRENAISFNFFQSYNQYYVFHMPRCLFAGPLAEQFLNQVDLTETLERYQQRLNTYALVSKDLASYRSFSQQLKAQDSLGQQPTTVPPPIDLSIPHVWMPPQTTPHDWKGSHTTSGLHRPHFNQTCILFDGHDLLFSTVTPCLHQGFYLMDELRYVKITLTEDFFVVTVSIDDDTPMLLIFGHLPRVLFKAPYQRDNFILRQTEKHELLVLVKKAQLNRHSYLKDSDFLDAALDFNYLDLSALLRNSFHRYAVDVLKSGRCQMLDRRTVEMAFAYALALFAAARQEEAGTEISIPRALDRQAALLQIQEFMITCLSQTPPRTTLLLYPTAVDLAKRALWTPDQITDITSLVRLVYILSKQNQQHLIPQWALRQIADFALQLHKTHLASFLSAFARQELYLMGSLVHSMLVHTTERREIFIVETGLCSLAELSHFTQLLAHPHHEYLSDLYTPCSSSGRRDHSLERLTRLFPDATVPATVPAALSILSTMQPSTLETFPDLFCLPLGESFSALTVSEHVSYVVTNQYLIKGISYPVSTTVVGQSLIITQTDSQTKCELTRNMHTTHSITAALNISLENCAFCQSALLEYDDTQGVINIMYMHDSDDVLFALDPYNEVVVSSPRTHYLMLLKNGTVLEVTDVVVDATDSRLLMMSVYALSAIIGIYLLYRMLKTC


Tests used:
Assay in all cases: cell-based or functional assay
[1] = target: T1, HCMV gH on virions of strain VR1814
[2] = target: T1, HCMV gH on virions of strain VR1814; remark: listed apart in the source
[3] = target: T1, HCMV gH on virions of strain VR1814; remark: listed apart in the source
[4] = target: T1, HCMV gH on virions of strain VR1814; remark: listed apart in the source
[5] = target: T1, HCMV gH on virions of strain VR1814; remark: listed apart in the source
[6] = target: T1, HCMV gH on virions of strain VR1814; remark: listed apart in the source

Binder | EC50 on epithelial cells, HB1 alone [1] | Epithelial EC50 (first pair of columns), neutralisation [2] | Epithelial EC50 (second pair of columns), neutralisation [2] | Fibroblast EC50, neutralisation [2] | MDM EC50, neutralisation [2] | HB1 EC50, neutralisation of the No Ab control virus [3] | EC50, block of viral entry into fibroblasts [4] | HB1 EC50, neutralisation of hu8G8 - mutant virus 1 (UL131 Q47K, gH unchanged) [5] | HB1 EC50, neutralisation of hu8G8 - mutant virus 2 (UL131 K51E, gH unchanged) [5] | HB1 EC50, neutralisation of hu8G8 - mutant virus 3 (UL131 D46N, gH unchanged) [5] | HB1 EC50, neutralisation of the No Ab control virus [5] | EC50 of HB1 in the presence of hu8G8 at .000128 µg/ml [6] | EC50 of HB1 in the presence of hu8G8 at .00064 µg/ml [6] | EC50 of HB1 in the presence of hu8G8 at .0032 µg/ml [6] | EC50 of HB1 with hu8G8 at 0 µg/ml [6] | EC50, inhibition of HCMV entry into ARPE-19 cells, Fab fragments from E. coli [4]
HB1 (D53N/T55R) (antibody, V domains shown) VH: EEQVLESGGGLVKPGGSLRLSCAASGFTFSPYSVFWVRQAPGKGLEWVSSINSNSRYKYYADSVKGRFTISRDNAENSIFLQMNSLRAEDTAVYYCARDRSYYAFSSGSLSDYYYGLDVWGQGTLVTVSS VL: DIVMTQSPLSLSVTPGEPASISCRSSQSLLHTNGYNYLDWYVQKPGQSPQLLIYLASNRASGVPDRFSGSGSGTDFTLKISRVETEDVGVYYCMQALQIPRTFGQGTKVEIK | 0.063 µl/ml | 0.05 µg/mL | 0.03 µg/mL | 0.11 µg/mL | 0.03 µg/mL | 0.04 µg/mL | 0.11 µg/ml and 0.7 nM | 0.18 µg/mL | 0.07 µg/mL | 0.06 µg/mL | 0.22 µg/mL | 0.041 µg/mL | 0.043 µg/mL | 0.035 µg/mL | 0.03 µg/mL | –
HB1 Fab fragment, H2-D53N/T55R (HB1) (Fab, V domains shown) VH: EEQVLESGGGLVKPGGSLRLSCAASGFTFSPYSVFWVRQAPGKGLEWVSSINSNSRYKYYADSVKGRFTISRDNAENSIFLQMNSLRAEDTAVYYCARDRSYYAFSSGSLSDYYYGLDVWGQGTLVTVSS VL: DIVMTQSPLSLSVTPGEPASISCRSSQSLLHTNGYNYLDWYVQKPGQSPQLLIYLASNRASGVPDRFSGSGSGTDFTLKISRVETEDVGVYYCMQALQIPRTFGQGTKVEIK | – | – | – | – | – | – | – | – | – | – | – | – | – | – | – | 0.15 nM
